{"source": "patent US7361341B2", "about": "“Methods of treating cancer using antibodies that immunospecifically bind to trail receptors” (Human Genome Sciences, Inc., priority 2001, dated 2008)", "key": {"[1]": {"test_system": "human primary hepatocytes", "test": "Cell viability of human primary hepatocytes (ALAMAR Blue)", "format": "cell-based", "settings": "24 hrs following treatment; T1014G03 62.5-1000 ng/ml, TRAIL 15.6-1000 ng/mL", "method": "(§1) The effect of T1014G03 (lot AB22125-M2) in human primary hepatocytes was determined by measuring either caspase activation or cell viability. Human hepatocytes were treated with 15.6, 62.5, 250 or 1000 ng/mL of TRAIL (amino acid residues 114-281, Biomol Research Laboratories Inc, Plymouth Meeting, Pa.), 62.5, 125, 250, or 1000 ng/ml of isotype control mAb (hlgG1,CAT002) or 62.5, 125, 250, or 1000 ng/ml T1014G03. Caspase activation was determined at 6 hrs following treatment, while viability was determined at 24 hrs following treatment.\n(§2) Caspase activity was measured using a fluorimetric assay utilizing the caspase substrate Rhodamine conjugated DEVD, (e.g., Homogeneous Fluorimetric Caspases Assay available from Roche Molecular Biochemicals (Indianapolis, Ind.)). Cell viability was determined using an ALAMAR Blue™ (Biosource International, Camarillo, Calif.) assay. […] In contrast to TRAIL, T1014G03 treatment was found not to effect either caspase or cell viability in human hepatocytes."}, "[2]": {"test_system": "human primary hepatocytes", "test": "Caspase activation in human primary hepatocytes", "format": "cell-based", "settings": "6 hrs following treatment; T1014G03 62.5-1000 ng/ml, TRAIL 15.6-1000 ng/mL", "method": "as §1, §2"}}, "data": [{"substance": "TRAIL: TRAIL (amino acid residues 114-281, Biomol Research Laboratories Inc)", "values": [{"measurement": "cell viability", "setting": "[1]", "value": "reduced cell viability at all concentrations tested"}, {"measurement": "caspase activity", "setting": "[2]", "value": "induced caspase activity at the highest concentration tested"}]}]}
